The record followed here is patent US20260098075A1.

B1: 2A2 CAR against ROR1 with Spacer 13 (protein)
chain: QVQLQQSGAELVRPGASVTLSCKASGYTFSDYEMHWVIQTPVHGLEWIGAIDPETGGTAYNQKFKGKAILTADKSSSTAYMELRSLTSEDSAVYYCTGYYDYDSFTYWGQGTLVTVSAGGGGSGGGGSGGGGSDIVMTQSQKIMSTTVGDRVSITCKASQNVDAAVAWYQQKPGQSPKLLIYSASNRYTGVPDRFTGSGSGTDFTLTISNMQSEDLADYFCQQYDIYPYTFGGGTKLEIKTGGGGSGPCPRCPAPMFWVLVVVGGVLACYSLLVTVAFIIFWVKRGRKKLLYIFKQPFMRPVQTTQEEDGCSCRFPEEEEGGCELRVKFSRSADAPAYQQGQNQLYNELNLGRREEYDVLDKRRGRDPEMGGKPRRKNPQEGLYNELQKDKMAEAYSEIGMKGERRRGKGHDGLYQGLSTATKDTYDALHMQALPPR
B2: R11 CAR against ROR1 with Spacer 5 (protein)
chain: QSVKESEGDLVTPAGNLTLTCTASGSDINDYPISWVRQAPGKGLEWIGFINSGGSTWYASWVKGRFTISRTSTTVDLKMTSLTTDDTATYFCARGYSTYYGDFNIWGPGTLVTISSGGGGSGGGGSGGGGSELVMTQTPSSTSGAVGGTVTINCQASQSIDSNLAWFQQKPGQPPTLLIYRASNLASGVPSRFSGSRSGTEYTLTISGVQREDAATYYCLGGVGNVSYRTSFGGGTEVVVKTGGGGSGCPRCPEPKSCDTPPPCPRCPEPKSCDTPPPCPRCPEPKSCDTPPPCPRCPAPMFWVLVVVGGVLACYSLLVTVAFIIFWVKRGRKKLLYIFKQPFMRPVQTTQEEDGCSCRFPEEEEGGCELRVKFSRSADAPAYQQGQNQLYNELNLGRREEYDVLDKRRGRDPEMGGKPRRKNPQEGLYNELQKDKMAEAYSEIGMKGERRRGKGHDGLYQGLSTATKDTYDALHMQALPPR
B3: 2A2 CAR against ROR1 with Spacer 21 (protein)
chain: QVQLQQSGAELVRPGASVTLSCKASGYTFSDYEMHWVIQTPVHGLEWIGAIDPETGGTAYNQKFKGKAILTADKSSSTAYMELRSLTSEDSAVYYCTGYYDYDSFTYWGQGTLVTVSAGGGGSGGGGSGGGGSDIVMTQSQKIMSTTVGDRVSITCKASQNVDAAVAWYQQKPGQSPKLLIYSASNRYTGVPDRFTGSGSGTDFTLTISNMQSEDLADYFCQQYDIYPYTFGGGTKLEIKTGGGGSGVPCPVPPMFWVLVVVGGVLACYSLLVTVAFIIFWVKRGRKKLLYIFKQPFMRPVQTTQEEDGCSCRFPEEEEGGCELRVKFSRSADAPAYQQGQNQLYNELNLGRREEYDVLDKRRGRDPEMGGKPRRKNPQEGLYNELQKDKMAEAYSEIGMKGERRRGKGHDGLYQGLSTATKDTYDALHMQALPPR
B4: R11 CAR against ROR1 with Spacer 6 (protein)
chain: QSVKESEGDLVTPAGNLTLTCTASGSDINDYPISWVRQAPGKGLEWIGFINSGGSTWYASWVKGRFTISRTSTTVDLKMTSLTTDDTATYFCARGYSTYYGDFNIWGPGTLVTISSGGGGSGGGGSGGGGSELVMTQTPSSTSGAVGGTVTINCQASQSIDSNLAWFQQKPGQPPTLLIYRASNLASGVPSRFSGSRSGTEYTLTISGVQREDAATYYCLGGVGNVSYRTSFGGGTEVVVKTGGGGSGEPKSCDTPPPCPRCPEPKSCDTPPPCPRCPEPKSCDTPPPCPRCPAPMFWVLVVVGGVLACYSLLVTVAFIIFWVKRGRKKLLYIFKQPFMRPVQTTQEEDGCSCRFPEEEEGGCELRVKFSRSADAPAYQQGQNQLYNELNLGRREEYDVLDKRRGRDPEMGGKPRRKNPQEGLYNELQKDKMAEAYSEIGMKGERRRGKGHDGLYQGLSTATKDTYDALHMQALPPR
B5: R11 CAR against ROR1 with Spacer 4 (protein)
chain: QSVKESEGDLVTPAGNLTLTCTASGSDINDYPISWVRQAPGKGLEWIGFINSGGSTWYASWVKGRFTISRTSTTVDLKMTSLTTDDTATYFCARGYSTYYGDFNIWGPGTLVTISSGGGGSGGGGSGGGGSELVMTQTPSSTSGAVGGTVTINCQASQSIDSNLAWFQQKPGQPPTLLIYRASNLASGVPSRFSGSRSGTEYTLTISGVQREDAATYYCLGGVGNVSYRTSFGGGTEVVVKTGGGGSGELKTPLGDTTHTCPRCPEPKSCDTPPPCPRCPEPKSCDTPPPCPRCPEPKSCDTPPPCPRCPAPMFWVLVVVGGVLACYSLLVTVAFIIFWVKRGRKKLLYIFKQPFMRPVQTTQEEDGCSCRFPEEEEGGCELRVKFSRSADAPAYQQGQNQLYNELNLGRREEYDVLDKRRGRDPEMGGKPRRKNPQEGLYNELQKDKMAEAYSEIGMKGERRRGKGHDGLYQGLSTATKDTYDALHMQALPPR
B6: 2A2 CAR against ROR1 with Spacer 28 (protein)
chain: QVQLQQSGAELVRPGASVTLSCKASGYTFSDYEMHWVIQTPVHGLEWIGAIDPETGGTAYNQKFKGKAILTADKSSSTAYMELRSLTSEDSAVYYCTGYYDYDSFTYWGQGTLVTVSAGGGGSGGGGSGGGGSDIVMTQSQKIMSTTVGDRVSITCKASQNVDAAVAWYQQKPGQSPKLLIYSASNRYTGVPDRFTGSGSGTDFTLTISNMQSEDLADYFCQQYDIYPYTFGGGTKLEIKTGGGGSGSVCSRDFTPPMFWVLVVVGGVLACYSLLVTVAFIIFWVKRGRKKLLYIFKQPFMRPVQTTQEEDGCSCRFPEEEEGGCELRVKFSRSADAPAYQQGQNQLYNELNLGRREEYDVLDKRRGRDPEMGGKPRRKNPQEGLYNELQKDKMAEAYSEIGMKGERRRGKGHDGLYQGLSTATKDTYDALHMQALPPR
B7: R12 CAR with Spacer 1 (ROR1-specific R12 scFv, Gly-Ser linker, Spacer 1, CD28-derived transmembrane domain, 4-1BB costimulatory domain, CD3 zeta signaling … (protein)
chain: QEQLVESGGRLVTPGGSLTLSCKASGFDFSAYYMSWVRQAPGKGLEWIATIYPSSGKTYYATWVNGRFTISSDNAQNTVDLQMNSLTAADRATYFCARDSYADDGALFNIWGPGTLVTISSGGGGSGGGGSGGGGSELVLTQSPSVSAALGSPAKITCTLSSAHKTDTIDWYQQLQGEAPRYLMQVQSDGSYTKRPGVPDRFSGSSSGADRYLIIPSVQADDEADYYCGADYIGGYVFGGGTQLTVTGGGGSGKPCPPCKCPMFWVLVVVGGVLACYSLLVTVAFIIFWVKRGRKKLLYIFKQPFMRPVQTTQEEDGCSCRFPEEEEGGCELRVKFSRSADAPAYQQGQNQLYNELNLGRREEYDVLDKRRGRDPEMGGKPRRKNPQEGLYNELQKDKMAEAYSEIGMKGERRRGKGHDGLYQGLSTATKDTYDALHMQALPPR

The test deals with human ROR1 (tyrosine-protein kinase transmembrane receptor ROR1) (human), Q01973. The experiment in a line: cell-based or functional assay.
Chain of human ROR1 (tyrosine-protein kinase transmembrane receptor ROR1) (human), Q01973 (Q01973 30-937): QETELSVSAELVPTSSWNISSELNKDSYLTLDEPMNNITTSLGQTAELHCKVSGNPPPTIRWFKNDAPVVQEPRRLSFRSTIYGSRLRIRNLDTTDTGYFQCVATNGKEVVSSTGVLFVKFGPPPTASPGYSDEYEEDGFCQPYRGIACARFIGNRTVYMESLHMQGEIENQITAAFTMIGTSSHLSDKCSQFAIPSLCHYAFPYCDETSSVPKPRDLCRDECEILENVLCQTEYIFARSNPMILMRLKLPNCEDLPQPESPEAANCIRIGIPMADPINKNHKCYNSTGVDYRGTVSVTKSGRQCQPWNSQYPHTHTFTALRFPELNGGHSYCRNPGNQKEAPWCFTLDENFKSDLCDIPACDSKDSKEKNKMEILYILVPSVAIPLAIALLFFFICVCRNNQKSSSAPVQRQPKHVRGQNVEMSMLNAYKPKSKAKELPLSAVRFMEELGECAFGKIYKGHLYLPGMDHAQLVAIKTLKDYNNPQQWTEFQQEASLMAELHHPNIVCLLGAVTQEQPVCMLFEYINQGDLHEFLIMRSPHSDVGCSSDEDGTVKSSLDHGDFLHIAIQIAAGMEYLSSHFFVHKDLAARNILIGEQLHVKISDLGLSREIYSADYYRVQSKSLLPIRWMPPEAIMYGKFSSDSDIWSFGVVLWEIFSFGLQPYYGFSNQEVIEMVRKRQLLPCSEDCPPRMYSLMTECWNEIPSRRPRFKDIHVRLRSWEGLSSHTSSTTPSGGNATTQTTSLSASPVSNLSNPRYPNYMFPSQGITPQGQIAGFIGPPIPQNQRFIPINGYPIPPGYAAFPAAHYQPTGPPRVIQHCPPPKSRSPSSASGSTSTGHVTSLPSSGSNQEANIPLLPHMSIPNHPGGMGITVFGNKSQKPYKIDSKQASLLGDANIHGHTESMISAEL
For B1, the A549 IFNg, donor 2089 stood at 46600; the A549 IFNg, donor 5018 is 38900; the A549 IL-2, donor 2089 was determined as 1; the A549 IL-2, donor 5018 is 3. Moreover, the A549 normalized AUC, donor 2089 stood at 42; the A549 normalized AUC, donor 5018 is 61; the H1975 IFNg, donor 2089 amounted to 67100; the H1975 IFNg, donor 5018 was 54300. Besides, the H1975 IL-2, donor 2089 is 1; the H1975 IL-2, donor 5018 was 14; the H1975 normalized AUC, donor 2089 stood at 37.9; the H1975 normalized AUC, donor 5018 was found to be 43.2.

Regarding B2, the A549 IFNg, donor 5018 is 60900; the A549 IFNg, donor 7811 came to 83600; the A549 IL-2, donor 5018 is 10; the A549 IL-2, donor 7811 was found to be 87. Also, the A549 normalized AUC, donor 5018 came out at 55.8; the A549 normalized AUC, donor 7811 was 48.8; the H1975 IFNg, donor 5018 turned out to be 17300; the H1975 IFNg, donor 7811 was 32400. In addition, the H1975 IL-2, donor 5018 turned out to be 2; the H1975 IL-2, donor 7811 is 16; the H1975 normalized AUC, donor 5018 was 86.7; the H1975 normalized AUC, donor 7811 worked out at 69.6.

Regarding B3, the A549 IFNg, donor 2089 turned out to be 55400; the A549 IFNg, donor 5018 came to 41300; the A549 IL-2, donor 2089 is 1; the A549 IL-2, donor 5018 is 3. Moreover, the A549 normalized AUC, donor 2089 came out at 38; the A549 normalized AUC, donor 5018 amounted to 58.9; the H1975 IFNg, donor 2089 was 78000; the H1975 IFNg, donor 5018 was found to be 61900. The molecule also displayed an H1975 IL-2, donor 2089 of 2; an H1975 IL-2, donor 5018 of 13; an H1975 normalized AUC, donor 2089 of 39.4; an H1975 normalized AUC, donor 5018 of 43.2.

As for B4, the A549 IFNg, donor 5018 amounted to 46300; the A549 IFNg, donor 7811 was 86700; the A549 IL-2, donor 5018 stood at 10; the A549 IL-2, donor 7811 came out at 89. Besides, the A549 normalized AUC, donor 5018 turned out to be 58.4; the A549 normalized AUC, donor 7811 is 51.4; the H1975 IFNg, donor 5018 turned out to be 7170; the H1975 IFNg, donor 7811 was found to be 11900. Moreover, the H1975 IL-2, donor 5018 amounted to 1; the H1975 IL-2, donor 7811 worked out at 2; the H1975 normalized AUC, donor 5018 amounted to 114; the H1975 normalized AUC, donor 7811 came to 96.5.

In the case of B5, the A549 IFNg, donor 5018 stood at 37000; the A549 IFNg, donor 7811 is 46200; the A549 IL-2, donor 5018 came out at 5; the A549 IL-2, donor 7811 was 26. This molecule displayed an A549 normalized AUC, donor 5018 of 59.1; an A549 normalized AUC, donor 7811 of 54.6; an H1975 IFNg, donor 5018 of 9130; an H1975 IFNg, donor 7811 of 15900. This molecule also yielded an H1975 IL-2, donor 5018 of 1; an H1975 IL-2, donor 7811 of 4; an H1975 normalized AUC, donor 5018 of 94.5; an H1975 normalized AUC, donor 7811 of 83.1.

Consider B6, for which the A549 IFNg, donor 2089 was 49900; the A549 IFNg, donor 5018 stood at 34200; the A549 IL-2, donor 2089 turned out to be 1; the A549 IL-2, donor 5018 was 2. Further, the A549 normalized AUC, donor 2089 came out at 43.6; the A549 normalized AUC, donor 5018 turned out to be 61; the H1975 IFNg, donor 2089 worked out at 78300; the H1975 IFNg, donor 5018 turned out to be 58100. The H1975 IL-2, donor 2089 came out at 1; the H1975 IL-2, donor 5018 was found to be 8; the H1975 normalized AUC, donor 2089 amounted to 39.5; the H1975 normalized AUC, donor 5018 was 44.3.

For the molecule B7, the A549 IFNg, donor 2735 worked out at 8940; the A549 IFNg, donor 5018 turned out to be 4350; the A549 IL-2, donor 2735 stood at 4; the A549 IL-2, donor 5018 was found to be 0. The molecule also yielded an A549 normalized AUC, donor 2735 of 67.6; an A549 normalized AUC, donor 5018 of 80.9; an H1975 IFNg, donor 2735 of 15700; an H1975 IFNg, donor 5018 of 4850. Also, the H1975 IL-2, donor 2735 came out at 10; the H1975 IL-2, donor 5018 turned out to be 0; the H1975 normalized AUC, donor 2735 came to 67.6; the H1975 normalized AUC, donor 5018 was found to be 68.8.
